From patent US20120219562A1 (AbbVie / Abbott, published 2012)
Where a chain is given by its changes, count along the chain named. In names and notes the source's numbering stands. Several values for one entry are separate records, joined by “and”; a condition that tells them apart may be missing. Equal values may be shown once. One block for each binder: values may come before it.

Key:
human interleukin 12 [1] = biological target: T1, human interleukin 12 (human, UniProt P29459 23-219; P29460 23-328); assay: RB assay (IL-12 receptor binding)
T1 construct: heterodimer of p35 and p40 linked by a disulfide bridge; also called hIL-12; IL-12
T1 sequence (looked up) 1: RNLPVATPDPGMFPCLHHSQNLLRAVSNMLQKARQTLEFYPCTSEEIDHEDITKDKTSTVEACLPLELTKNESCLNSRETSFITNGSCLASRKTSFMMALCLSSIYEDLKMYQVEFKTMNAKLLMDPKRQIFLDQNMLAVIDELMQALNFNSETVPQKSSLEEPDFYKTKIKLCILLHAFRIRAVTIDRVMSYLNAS
T1 sequence (looked up) 2: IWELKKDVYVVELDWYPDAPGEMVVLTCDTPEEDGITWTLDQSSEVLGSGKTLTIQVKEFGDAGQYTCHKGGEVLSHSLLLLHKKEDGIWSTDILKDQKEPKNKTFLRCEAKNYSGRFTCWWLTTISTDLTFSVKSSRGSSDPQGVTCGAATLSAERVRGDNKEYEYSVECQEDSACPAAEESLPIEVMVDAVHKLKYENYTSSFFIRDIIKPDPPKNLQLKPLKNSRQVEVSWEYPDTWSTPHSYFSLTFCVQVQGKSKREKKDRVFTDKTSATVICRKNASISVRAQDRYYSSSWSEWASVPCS

human interleukin 12 [2] = biological target: T1, human interleukin 12; assay: cell-based or functional assay
human interleukin 12 [3] = biological target: T1, human interleukin 12; assay: SPR (BIAcore)
[4] = biological target: T2, human interleukin 12 (recombinant human IL-12, p70 heterodimer) (human, UniProt P29459 23-219; P29460 23-328); assay: cell-based or functional assay
T2 sequence (looked up) 1: T1 sequence (looked up) 1
T2 sequence (looked up) 2: T1 sequence (looked up) 2

[5] = biological target: T2, human interleukin 12 (recombinant human …); assay: cell-based or functional assay; remark: listed apart in the source
[6] = biological target: T2, human interleukin 12 (recombinant human …); assay: SPR (BIAcore), off-rate from human IL-12
[7] = biological target: T2, human interleukin 12 (recombinant human …); assay: RB assay: inhibition of IL-12 binding to its receptor
[8] = biological target: T3, human interleukin 12 (p70 heterodimer of p35 and p40) (human, UniProt P29459 23-219; P29460 23-328); assay: SPR (BIAcore), off-rate
T3 construct: Recombinant human IL-12; also called hIL-12; IL-12
T3 sequence (looked up) 1: T1 sequence (looked up) 1
T3 sequence (looked up) 2: T1 sequence (looked up) 2

[9] = biological target: T3, human interleukin 12 (p70 heterodimer …); assay: SPR (BIAcore), off-rate; remark: listed apart in the source
[10] = biological target: T3, human interleukin 12 (p70 heterodimer …); assay: SPR (BIAcore), off-rate; remark: listed apart in the source
[11] = biological target: T3, human interleukin 12 (p70 heterodimer …); assay: SPR (BIAcore), off-rate; remark: listed apart in the source
[12] = biological target: T3, human interleukin 12 (p70 heterodimer …); assay: SPR (BIAcore), off-rate; remark: listed apart in the source
[13] = biological target: T3, human interleukin 12 (p70 heterodimer …); assay: surface plasmon resonance (BIAcore)
[14] = biological target: T3, human interleukin 12 (p70 heterodimer …); assay: SPR (BIAcore), off-rate; remark: listed apart in the source
[15] = biological target: T3, human interleukin 12 (p70 heterodimer …); assay: SPR (BIAcore), off-rate; remark: listed apart in the source

IC50 (human interleukin 12 [1]): 0.3 nM
PHA assay IC50 (human interleukin 12 [2]): 100 nM
koff (human interleukin 12 [3]): 0.0011 s⁻¹
B1: 136-14 (antibody, V domains shown)
VH: QVQLVQSGGGVVQPGRSLRLSCAASGFTFSSYGMHWVRQAPGKGLEWVAFIRYDGSNKYYADSVKGRFTISRDNSKNTLYLQMKSLRAEDTAVYYCTTHGSHDNWGQGTMVTVSS
VL: SYVLTQPPSVSGTPGQRVTISCSGGRSNIGSNTVKWYQQLPGTAPKLLIYGNDQRPSGVPDRFSGSKSGTSASLAITGVQAEDEADYYCQTYDRGFTGSRVFGTGTKVTVL

PHA assay IC50 [4]: 0.13 nM
PHA assay IC50 (M) p70:p40 1:0 [5]: 1.8e-10 M
PHA assay IC50 (M) p70:p40 1:50 [5]: 1.8e-10 M
koff [6]: 0.00015 s⁻¹
B2: Y61 IgG (antibody, V domains shown)
VH: B1 VH with T97K
VL: SYVLTQPPSVSGTPGQRVTISCSGGRSNIGSNTVKWYQQLPGTAPKLLIYGNDQRPSGVPDRFSGSKSGTSASLAITGVQAEDEADYYCQSYDRGTHPALLFGTGTKVTVLG
notes: IgG

IC50 (human interleukin 12 [1]): 2 nM
koff (human interleukin 12 [3]): 0.0014 s⁻¹
B3: 136-10 (antibody, V domains shown)
VH: B1 VH with N104D
VL: B1 VL with T91S

IFN gamma IC50 [4]: 0.04 nM
PHA assay IC50 [4]: 0.05 nM
IC50 [7]: 0.06 nM
koff [6]: 0.000127 s⁻¹
B4: Y61-L94Y IgG (antibody, V domains shown)
VH: B1 VH with T97K
VL: QSVLTQPPSVSGAPGQRVTISCSGSRSNIGSNTVKWYQQLPGTAPKLLIYGNDQRPSGVPDRFSGSKSGTSASLAITGLQAEDEADYYCQSYDRYTHPALLFGTGTKVTVL

IC50 (human interleukin 12 [1]): 2 nM
koff (human interleukin 12 [3]): 0.00042 s⁻¹
B5: 136-21 (antibody, V domains shown)
VH: B1 VH
VL: B1 VL with T91S, R94N

IC50 (human interleukin 12 [1]): 2 nM
PHA assay IC50 (human interleukin 12 [2]): 7 nM
koff (human interleukin 12 [3]): 2.9e-05 s⁻¹
B6: 136-17 (antibody, V domains shown)
VH: B1 VH
VL: B1 VL with T91S, R94W, G95N

IFN gamma IC50 [4]: 0.03 nM
PHA assay IC50 [4]: 0.02 nM
koff [6]: 6.98e-05 s⁻¹
B7: Y61-L50Y* IgG (antibody, V domains shown)
VH: B1 VH with T97K
VL: B4 VL with G51Y, Y95G

IC50 (human interleukin 12 [1]): > 10 nM
koff (human interleukin 12 [3]): 0.00251 s⁻¹
B8: 73-B6 (antibody, V domains shown)
VH: B1 VH with H99S, H102Y, N104Y
VL: B2 VL with Q90H, R94N, G95R, T96F, H97T, P98G, A99S, L100R, L101V

IC50 (human interleukin 12 [1]): > 10 nM
koff (human interleukin 12 [3]): 0.00325 s⁻¹
B9: 73-B1 (antibody, V domains shown)
VH: B1 VH with H99S, H102Y, N104Y
VL: B2 VL with Q90H, R94S, G95D, T96F, H97T, P98G, A99S, L100R, L101V

PHA assay IC50 (M) p70:p40 1:0 [5]: 2e-09 M
B10: 136-15 (antibody, V domains shown)
VH: B1 VH with T97K
VL: B2 VL with G25S, S91T, R94K, T96F, H97T, P98G, A99S, L100S, L101V

IC50 (human interleukin 12 [1]): > 10 nM
koff (human interleukin 12 [3]): 0.00271 s⁻¹
B11: 73-C1 (antibody, V domains shown)
VH: B1 VH with H99S, H102Y, N104Y
VL: B2 VL with Q90H, R94S, G95R, T96F, H97T, P98G, A99S, L100R, L101V

koff [8]: 0.00031 s⁻¹ and 0.000385 s⁻¹
koff [9]: 0.000215 s⁻¹ and 0.000297 s⁻¹
koff [10]: 0.000168 s⁻¹ and 0.000337 s⁻¹ and 0.000178 s⁻¹
koff [11]: 0.000403 s⁻¹
koff [12]: 0.000211 s⁻¹ and 0.000229 s⁻¹ and 0.000241 s⁻¹
koff [13]: ~0.0002 s⁻¹
koff [14]: 0.000397 s⁻¹ and 0.000375 s⁻¹ and 0.000255 s⁻¹ and 0.000143 s⁻¹
koff [15]: 0.000204 s⁻¹ and 0.000206 s⁻¹ and 0.000151 s⁻¹ and 0.000178 s⁻¹
B12: Y61 human anti-hIL-12 antibody (antibody, V domains shown)
VH: B1 VH with T97K
VL: B2 VL

IC50 (human interleukin 12 [1]): 0.3 nM
PHA assay IC50 (human interleukin 12 [2]): 5 nM
koff (human interleukin 12 [3]): 0.00061 s⁻¹
B13: 136-16 (antibody, V domains shown)
VH: B1 VH
VL: B1 VL with T91S, G95R

IC50 (human interleukin 12 [1]): 0.4 nM
B14: 136-15M1 (antibody, V domains shown)
VH: B1 VH with T97A, T98K
VL: B2 VL with T96F, H97T, P98G, A99S, L100R, L101V

koff [6]: 5.14e-05 s⁻¹
B15: J695 (Y61-L94Y-L50Y IgG*) (antibody, V domains shown)
VH: B1 VH with Q6E, K84N, T97K
VL: B2 VL with S1Q, Y2S, T13A, G25S, G51Y, V79L, G95Y
notes: also called ABT-874

PHA assay IC50 (human interleukin 12 [2]): 500 nM
B16: Joe9 wt IgG1 (antibody, V domains shown)
VH: not shown
VL: SYVLTQPPSVSGTPGQRVTISCSGGRSNIGSNTVKWYQQLPGTAPKLLIYGNDQRPSGVPDRFSGSKSGTSASLAITGVQAEDEADYYCQSYDSSLRG
